Assay results: the domain aggregation screens of Martell et al. (2025)

Test: soluble fraction after stress (log2 fold change); higher = more stays soluble; pooled small domains, quantitative proteomics
Conditions: stress: pH 4
Summary of the method: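 Following acid stress at pH 4, the amount of each small protein domain still soluble was measured in pooled custom libraries by high-throughput quantitative proteomics. Its fold change, on a log2 scale, is higher when more of the domain stayed soluble. This fold change is taken as a measure of aggregation propensity.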

Point of comparison: “HMVTKTTYAYERLKREIMDGTLGQGEKLVVNAISQRYQVSPMPIREALLKLEQEGLVQSAPHRGAWVHK”, “soluble fraction (log2)” value 0.0193. Against it:
- HMVITQVSTTQTDTTFQYHKVKPKETLFSISRLYEVSIDEIKTINPALNSRELMAGELLKLPIK — lower, -0.337
- HMVKGIVPNLIGKTQDEAKQMAEEYGFSIGTVSEKASDKPKGTVIEQSPKAGAKASGVTSINIVVSDGS — lower, -0.247
- HMVKKYEKVKEYLLERILDGTYVPDLPIPPERELASLLDVNRMTVRRAVEELMYDGYLIRKKGSGTYLTR — lower, -0.2
- HMVKLSVGDIVQFAGGPHYVSSSAAKPASSPTAGPAKVTMIYQGAKHPYHIVHTTSASTVWGWVDADKVVK — lower, -0.208
- HMVKNLRKLREELGLTQQRLAELTGISKSRIYSYESLDREPDIAGLITLADFFSVSIDYLVGK — lower, -1.01
- HMVKPKIILADIGMITETDVTLAKASQAVLIAFNVKPSKEAKKLAEDENIKISTYNIIYEVLDFVKKSMSG — within 0.2 log units, 0.0492
- HMVLALRGIVQGGAEPLVILSDGRTSQSLAVGERFLAYEVVEIGRTGVRLRGPEGEIWLAMASF — lower, -1.37
- HMVLANLQAAEQGDLGIKEGEKLTILQTRPDGWWTARNANGETGLVPK — within 0.2 log units, 0.0851
- HMVLFDLSEREKEVLKLLADGNSYKMIASRLEITYFTVNAHLKKIYEKLQVHSASEAVSVALRNSL — lower, -1.36
- HMVLIQNEDVKDISNYPLLSSVPVFDVFNNKMIIPTFNKDSFNPLIYNFNFNSKRRLIYRVDNTNYLIVIK — lower, -0.241
- HMVLMPIDALRGSSSSSEMRIAAVKFSPSKGWYFSLQERSDEGSSYYEQKVASDGSVSERVKVR — lower, -0.69
- HMVLNVMIEEEVHREIIAAISKLPKERRRVVELSMAGFSQEEIAEKMAISVNTVKTIKLRAYRVLRERLKG — lower, -0.208
- HMVLPELRLQGLPTAVLRLINRATALADDYRRLMEIAEDGRIDEWEAPEFERISENIQRVIAAGFEVL — within 0.2 log units, 0.1
- HMVLQHHTATKALSYHTSASASAAVKGSFARGDSVQVVQGGSQTADGAKWHKVKVGSSYYYAAAEHLTP — lower, -0.616
- HMVLTYYSVLGVKTDATTEEIKSTYKQLAIRNHPDRGGSEEVMKMINLAAEILSDPKSRKEYDLSLDA — lower, -1.48
- HMVLVLPGEMIHVQVIDEGKEMGQGVGYLDDGTMVVVENGLRHIGRAIDVQVTKVLQTNAGRMIFGQPIL — lower, -0.952
- HMVMAELRISVDRLQIGNYIKLPLSWRDHPFLLSSFMIKKEEQIQLIRQLRLKHVFIIPEKSDAPPKPA — lower, -1.81
- HMVMNYKKIGKKIADRRILLGITQEELAEKVDSSANYISNIETGIKSGSLIFYIKVANELKLSLDFLFSDE — lower, -0.363
- HMVMPTGRVRYYDAEKGFGFLSKDSGGDDVYVRSSALPAGVTSLKRGQKVEFGIIDGKRGEQALSVHLL — within 0.2 log units, 0.0712
- HMVMTTVPEVLGMDIRTAASMLTGKNLKYDYDLVESDKPKDEVIEQDQAKGTEVPEGTVVKLKVSKGPA — higher, 0.247
- HMVMTTVPEVLGMDISKAASLLTGKNLDYDYDLVESDKPKDQVIEQDVVKGTEVPEGTVIHLKVSKGPA — within 0.2 log units, -0.0925
- HMVMVVDVLKALSNNSSDKFFNTSISNAIKAQEDSQEDFVTLFGIEYEKLSPNNGLAVIFTSQ — lower, -0.816
- HMVNDDTIAATEAEILALLADKHRHHITELNSIRRPYEQIDAALSSLINEEKIFQEDGMLFV — lower, -0.908
- HMVNGEFIDRIKVILQENNATRKKDRLTKTRMYQLLQEEGYEGSYSAFTYQVRIIEEELGINNK — higher, ≥ 0.43
- HMVNSIQIHKKLRLDKRAGSDNWYARLTLPNGKRLVKTTKTEDIETAKEVALRLYYEVDARIQNKLPAT — within 0.2 log units, -0.158
- HMVPADVQHLRDIVDTMTEKQQLVYKLHVLEGYTFTEIAKLMGTSIPNVKKHYDKAILFIKNNF — within 0.2 log units, -0.165
- HMVPEEEATKISVQNVGASDYNFTVKGVQANDPTLTLVRGKTYEFDVTSLGHPFWIKTQKVTGSSSQY — within 0.2 log units, -0.139
- HMVPLSPRFFDIFRKRKDLTRQNVDVYFRDHPTEITAFERYIKGLVSQSYIPAERADALLLVASQYKAK — within 0.2 log units, 0.0777
- HMVPSTAVIFTELVSMRSEPATKSPVTHQLTKGTAITINEEKDGWYQVTDQTGNSGWIVKWAVKPTYFTNP — higher, 0.31
- HMVPTYEAYVGKEGLVVGTLRPAGTAEFDGERLDVVSEGEYLEAGTRVQIVRTEGRRIVVRKIN — lower, -0.233
- HMVPVVGTTIPHEFIGKFGSARVMLKPAVEGSGVIAGGSARAVLELAGYKDIKTKVLGTNNPRNVVYATMN — within 0.2 log units, 0.196
- HMVQDDDPNSVAKFIDQVIESNPEQVEQYRSGKEKVFNFFLGQTMRLSKGKANPDLVSELLKEKLS — within 0.2 log units, -0.00692
- HMVQIQDIAFSEFLNELEKGNILDVNIKGDLINGNMLDGKKFKTYAPYDPSLVEKLSKQNVTINVEPVN — within 0.2 log units, -0.06
- HMVQMKIRAYELEPNDFFIKQNMTYRVMRIQNGMIYAKHLLNSTPITFGAKSMEFVLWTGKYS — lower, -1.05
- HMVQQTEEDVIRDMYVEGKIFTIGEEVTDTYTGVTGKIIRRGTNYVTFMSEDGETYKKWLYEIELA — lower, -1.82
- HMVRDGDTFVVPKMDRFARNVEDTLHLVRELTERGVIFQMGHTVYDPHDPWSKLFLTFLAAIAEA — within 0.2 log units, 0.191
- HMVREVGYNAFLAMLDSGAVKEVARDESEGQITFLATDEKGKERVYKTGIWPDDTLTERLNTAGVEFA — lower, -0.941
- HMVREVSYDQFLHFVEAKQVGMVYQDGESLMFTLKEDVEKEWGVTAYKTGLWPDANLTDRLLDAGVVFS — lower, -1.65
- HMVRGNLAEELLKLREEEGISFQEAGARSGIARSTISQVVNQGLRLKPNQEESLWRVIEEVRGVKER — within 0.2 log units, -0.0263
- HMVRSEDLIGLQGRITLATDVETRGFVELSVKGSLLRRPALSLKGPLAKNTAVVVTASNDHTLEVEAL — lower, -0.77
- HMVRSKLEIVPVPEDAVVKIAGLKRLTYQAYQNEDVPYMVYKNGYEAQSGTVFMDTDKTLTVTLEESP — within 0.2 log units, 0.151
- HMVSAMLLHKKEILNLLAEEPEALHFASLLRAFGGRHIKNELKQIVDDLVRSGEILRLRGNRYTLPGADN — within 0.2 log units, -0.149
- HMVSATKAFVNGGNIVVSSPKATRVAVYNVAGQKVAEQAFAGKATIKASDFAKGIYVLKFNDNTVLKLT — within 0.2 log units, -0.0226
- HMVSDAELTSQATTAITAYPGTSVEVKEGQAHLSGTFATEADKQAAIDALKKIQDVKDVHDMATV — within 0.2 log units, 0.0294
- HMVSDSAELSAFVADVIKENAQAVADYKGGKTNVFGWLMGQIIKKSGGKATPAAAAALLKAELEK — within 0.2 log units, -0.14
- HMVSKQVTVNGIQYYQYTVQKSEGFYAISTKFGVTQDDIILANPSTKEGLRVGQEILIPIKT — within 0.2 log units, -0.0976
- HMVSLLDWAYKQVRRMLFSGDLPQGQKIVVAQLANQLSISPTPVKEALNRLAVEGLLEAVPRRGFQVR — lower, -1.02
- HMVSQELIMLGNRIREYRKERGFSQEILAEKSGVSTNTISRIEGGQMAMSVGILQRIVKALGVDANVMLG — within 0.2 log units, 0.12
- HMVSQKPKERELWFREQLELAGLRLDPHAISAINETLGNDTGRFPGIIDTLLSTYGAGKKLSYDDVVMFL — lower, -1.8
- HMVSRAFEEETVKRAESGNQEAALFALELAIREIEHSYEKSKIIDYFVSKVRLFLDNGVSLERALGIH — within 0.2 log units, -0.0689
- HMVSRKIENPYWANKEKQHIIAEFFYPDTNKRVTASIMNDGSNRDYEEILRGYSIEQIDANTNRRLEER — lower, -0.811
- HMVSSEGLASGIERMLVEFGLETDKGRRFAMWSLLYMLGSAPDLDVAFKDPRDREAARTFMDLLDQANA — lower, -0.99
- HMVSSVAAISQMIDEKDRYTSEHSHRVAEYARLIGAHMGFAGEELDSLYRSALLHDIGKIAVPDAILNK — lower, -0.417
- HMVSTDPVHLFNLGTANRRAGRASEAITSYRKFMEAAPQHPQVPEARAYIHDMEVLLQERQKSEQAASQLS — within 0.2 log units, -0.0261
- HMVSTSVTVTGDLNVRADSRADSDLVGALIPGQTVTRLAVLDNGWSKIRFDDGAGTVVEGYVLSEYLQADG — within 0.2 log units, 0.131
- HMVSVEINTVERDETFRKMFTSGWKPENRIQALAVEQAKKNGLGRMSEVAGLASFRGIWKQATEQVALEA — within 0.2 log units, -0.0443
- HMVSVLDHIVGIGAKRRQSLWNHFGTIDKIKAASIDELLKAPGMNRPSAEAVYYFFEAQRQLRGK — within 0.2 log units, 0.0106
- HMVTEKNALTIEIEDLTKRFGNQRESLLPILQEVQLKHGHISDFAQQEIARLLDIHPVEVYGVVTFFSFLS — lower, -2.43
- HMVTGSIYERKGIYYAIVSYYVDGRRKQKSVSTGLSVKGNKRRALEFLENLKRTYETKESMENMD — higher, ≥ 0.43
- HMVTIEEMMDRLLTRVQRAVNMSFSEFSGEAKEKVEVIVSFLALLELVKQGAVDVLQHENFSDIRIENT — lower, -0.841
- HMVTKQKKLVLTIIERSHGHLSAEEIFFRAREEMPNIALGTVYRNLNSLTEEGIVRRITLPGTSDRFDT — lower, -0.506
- HMVTNELFGTRLRAFRKEKGLTIEQLAERVGLSPNYLGDIERGKKLPSMATFIRLVNELDISADEL — within 0.2 log units, 0.174
- HMVTQVDYGTFLTRIDEGKVKSVEIQDNQIAFTAIDEAGKENIYVTGKVNDPELVDRLLAADIEDFSQVIP — lower, -1.29
- HMVTTTEAAKMLLVNAGHDVIKDGLTGASWASNTMKLADADGLLASVATKPNDALPRQYAAQMIYN — higher, 0.265
- HMVVANTAIKSELQNIVANENKQAPLSDQKIVDQLKQAGFDISRRTVVKYRDALGIPTSRNRKR — within 0.2 log units, 0.112
- HMVVEGMQFDRGYLSQYMVTDNEKMVADLENPYILITDKKISNIQEILPLLESILQSSRPLLIIADD — lower, -0.573
- HMVVGYRYVTNVANAVNFRQKPSASSTIITTIPYGTRIGYVEDANSEYARVKYDNMYGYVAKFYLSNYSPP — higher, 0.276
- HMVVLNQEQIKFIDHYLQVSKVRYVDVRSELTDHIATAVELKMQDEALDFYEAFKAFIAVNKSQLLQRN — lower, -0.975
- HMVVNERIKKLRRSLDLTQQEFADRIGVKRNTIANYEIGRNEPIDSVLELIVREFGVSKQWLLDGTGEMF — within 0.2 log units, 0.0586
- HMVVPRSFKYEVLAHGGWAGNAQRYQTKEEALHAGLALSRRWTAVEDYRAVPSDDLPNQPAL — within 0.2 log units, 0.127
- HMVVPSNPDELKGSFSLAEVASGYGLEVAAILEKAGWPADTDPNVKMRDAANAIGRDSTDIRNAVKALLKS — lower, -0.468
- HMVVVPPPATPKPGDVTGDNKINGYDLSILLSNWKRPGATLAQGDLNKDGVVNGLDLSIMLLNWG — within 0.2 log units, 0.0857
- HMVVYDAELLLNINPGMSYEEVKEMLGDPGMIIAGNDAENSVYRWSTGGISFMGRFENGALIRKSIISP — lower, -0.916
- HMVWNVEQIKRAVDQLPDGYRVVFTLYLFEGYDHREIADILGISEGGSKSQFNRAKSKLKEILTAMS — lower, -1.2
